B1: DLC1 (parent)
chain: HVTHWMGQPFNSDDRNTACHHGLV

Variants of: B1
Assay: protein stability index of a GFP-peptide fusion (GPS, HEK-293T) (PSI 1-6); higher = more stable
Conditions: c terminus: a fixed tail appended
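Also: lentivirally expressed fusions sorted by FACS into six bins by GFP to DsRed ratio, PSI derived from sequencing read proportions per bin multiplied by bin number.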

Going from HVTHWMWQPFNSDDRNTACHHGLV [G7W] to HVTHWMYQPFNSDDRNTACHHGLV [G7Y], the protein stability index falls from 3.07 to 1.88.

Going from HVTHWMGQPFNSDDRNDACHHGLV [T17D] to HVTHWMGQPFNSDDRNPACHHGLV [T17P], the protein stability index falls from 2.65 to 2.17.

Compared with HVTHWMGQPFNSDDRNEACHHGLV [T17E], HVTHWMGQPFNSDDRNLACHHGLV [T17L] is lower in protein stability index: 2.32 for the first, 1.68 for the second.

Going from HVTHWMGQPFNSDDRNMACHHGLV [T17M] to HVTHWMGQPFNSDDRNGACHHGLV [T17G], the protein stability index rises from 1.72 to 2.04.

First: HVTHWMGQPFNSDDRNAACHHGLV [T17A]
Second: HVTHWMGQPFNSDDRNKACHHGLV [T17K]
The protein stability index of the first is lower: 1.99 for the first, 2.01 for the second.

Compared with HVTHWMGQPFNSDDRNNACHHGLV [T17N], HVTHWMGQPFNSDDRNFACHHGLV [T17F] is lower in protein stability index: 2.21 for the first, 2.06 for the second.

Compared with HVTHWMGQPFNSDDRNHACHHGLV [T17H], HVTHWMGQPFNSDDRNIACHHGLV [T17I] is higher in protein stability index: 2.23 for the first, 2.25 for the second.

Going from HVTHWMGQPFNSDDRNQACHHGLV [T17Q] to HVTHWMGQPFNSDDRNCACHHGLV [T17C], the protein stability index falls from 2.38 to 1.66.

Compared with HVTHWMGQPFNSDDRNRACHHGLV [T17R], HVTHWMGQPFNSCDRNTACHHGLV [D13C] is lower in protein stability index: 1.99 for the first, 1.8 for the second.

Compared with HVTHWMGQPFNSEDRNTACHHGLV [D13E], HVTHWMGQPFNSWDRNTACHHGLV [D13W] is lower in protein stability index: 2.07 for the first, 1.6 for the second.

First: HVTHWMGQPFNSKDRNTACHHGLV [D13K]
Second: HVTHWMGQPFNSQDRNTACHHGLV [D13Q]
The protein stability index of the first is higher: 2.32 for the first, 1.62 for the second.

Compared with HVTHWMGQPFNSADRNTACHHGLV [D13A], HVTHWMGQPFNSVDRNTACHHGLV [D13V] is lower in protein stability index: 1.48 for the first, 1.37 for the second.

Compared with HVTHWMGQPFNSSDRNTACHHGLV [D13S], HVTHWMGQPFNSLDRNTACHHGLV [D13L] is higher in protein stability index: 1.72 for the first, 2.05 for the second.

Going from HVTHWMGQPFNSYDRNTACHHGLV [D13Y] to HVTHWMGQPFNSTDRNTACHHGLV [D13T], the protein stability index falls from 2.26 to 1.94.

First: HVTHWMGQPFNSIDRNTACHHGLV [D13I]
Second: HVTHWMGQPFNSNDRNTACHHGLV [D13N]
The protein stability index of the first is lower: 1.92 for the first, 2.11 for the second.

Compared with HVTHWMGQPFNSGDRNTACHHGLV [D13G], HVTHWMGQPFNSPDRNTACHHGLV [D13P] is higher in protein stability index: 2 for the first, 2.14 for the second.

Going from HVTHWMGQPFNSHDRNTACHHGLV [D13H] to HVTHWMGQPFNSMDRNTACHHGLV [D13M], the protein stability index falls from 1.77 to 1.13.

Compared with HVTHWMGQPFNSRDRNTACHHGLV [D13R], HVTHWMGQPFNSFDRNTACHHGLV [D13F] is higher in protein stability index: 1.62 for the first, 1.81 for the second.

Compared with HVTHWMGQPFASDDRNTACHHGLV [N11A], HVTHWMGQPFKSDDRNTACHHGLV [N11K] is lower in protein stability index: 2.07 for the first, 1.86 for the second.

Compared with HVTHWMGQPFQSDDRNTACHHGLV [N11Q], HVTHWMGQPFHSDDRNTACHHGLV [N11H] is lower in protein stability index: 2.23 for the first, 1.8 for the second.

First: HVTHWMGQPFPSDDRNTACHHGLV [N11P]
Second: HVTHWMGQPFVSDDRNTACHHGLV [N11V]
The protein stability index of the first is lower: 2.3 for the first, 2.62 for the second.

Compared with HVTHWMGQPFISDDRNTACHHGLV [N11I], HVTHWMGQPFESDDRNTACHHGLV [N11E] is higher in protein stability index: 1.94 for the first, 2.58 for the second.

Going from HVTHWMGQPFYSDDRNTACHHGLV [N11Y] to HVTHWMGQPFSSDDRNTACHHGLV [N11S], the protein stability index falls from 2.26 to 1.69.

Compared with HVTHWMGQPFWSDDRNTACHHGLV [N11W], HVTHWMGQPFMSDDRNTACHHGLV [N11M] is lower in protein stability index: 3.88 for the first, 2.07 for the second.

Compared with HVTHWMGQPFTSDDRNTACHHGLV [N11T], HVTHWMGQPFRSDDRNTACHHGLV [N11R] is higher in protein stability index: 2.02 for the first, 2.17 for the second.

Going from HVTHWMGQPFGSDDRNTACHHGLV [N11G] to HVTHWMGQPFCSDDRNTACHHGLV [N11C], the protein stability index rises from 2.13 to 2.17.

First: HVTHWMGQPFLSDDRNTACHHGLV [N11L]
Second: HVTHWMGQPFFSDDRNTACHHGLV [N11F]
The protein stability index of the first is higher: 2.14 for the first, 1.65 for the second.

Compared with HVTHWMGQPFDSDDRNTACHHGLV [N11D], HVTHWMGSPFNSDDRNTACHHGLV [Q8S] is lower in protein stability index: 2.58 for the first, 2.15 for the second.

Compared with HVTHWMGFPFNSDDRNTACHHGLV [Q8F], HVTHWMGVPFNSDDRNTACHHGLV [Q8V] is lower in protein stability index: 2.05 for the first, 1.77 for the second.

Compared with HVTHWMGDPFNSDDRNTACHHGLV [Q8D], HVTHWMGIPFNSDDRNTACHHGLV [Q8I] is higher in protein stability index: 2.03 for the first, 2.66 for the second.

Going from HVTHWMGRPFNSDDRNTACHHGLV [Q8R] to HVTHWMGWPFNSDDRNTACHHGLV [Q8W], the protein stability index falls from 2.15 to 1.55.

Going from HVTHWMGNPFNSDDRNTACHHGLV [Q8N] to HVTHWMGTPFNSDDRNTACHHGLV [Q8T], the protein stability index rises from 1.92 to 2.6.

Going from HVTHWMGPPFNSDDRNTACHHGLV [Q8P] to HVTHWMGEPFNSDDRNTACHHGLV [Q8E], the protein stability index rises from 2.1 to 2.43.

Going from HVTHWMGYPFNSDDRNTACHHGLV [Q8Y] to HVTHWMGKPFNSDDRNTACHHGLV [Q8K], the protein stability index rises from 1.74 to 2.27.

First: HVTHWMGAPFNSDDRNTACHHGLV [Q8A]
Second: HVTHWMGGPFNSDDRNTACHHGLV [Q8G]
The protein stability index of the first is higher: 2.26 for the first, 1.81 for the second.

Compared with HVTHWMGMPFNSDDRNTACHHGLV [Q8M], HVTHWMGLPFNSDDRNTACHHGLV [Q8L] is lower in protein stability index: 1.28 for the first, 1.22 for the second.

Compared with HVTHWMGCPFNSDDRNTACHHGLV [Q8C], HVTHWMGHPFNSDDRNTACHHGLV [Q8H] is higher in protein stability index: 2.14 for the first, 2.32 for the second.

First: HVTHWMGQPFNCDDRNTACHHGLV [S12C]
Second: HVTHWMGQPFNMDDRNTACHHGLV [S12M]
The protein stability index of the first is lower: 1.51 for the first, 2.61 for the second.

Compared with HVTHWMGQPFNQDDRNTACHHGLV [S12Q], HVTHWMGQPFNTDDRNTACHHGLV [S12T] is higher in protein stability index: 1.98 for the first, 2.02 for the second.

First: HVTHWMGQPFNEDDRNTACHHGLV [S12E]
Second: HVTHWMGQPFNIDDRNTACHHGLV [S12I]
The protein stability index of the first is higher: 2.52 for the first, 2.05 for the second.

Compared with HVTHWMGQPFNNDDRNTACHHGLV [S12N], HVTHWMGQPFNPDDRNTACHHGLV [S12P] is lower in protein stability index: 2.55 for the first, 2.29 for the second.

Compared with HVTHWMGQPFNDDDRNTACHHGLV [S12D], HVTHWMGQPFNLDDRNTACHHGLV [S12L] is lower in protein stability index: 2.62 for the first, 2.11 for the second.

Compared with HVTHWMGQPFNRDDRNTACHHGLV [S12R], HVTHWMGQPFNHDDRNTACHHGLV [S12H] is higher in protein stability index: 2.01 for the first, 2.04 for the second.

Going from HVTHWMGQPFNADDRNTACHHGLV [S12A] to HVTHWMGQPFNWDDRNTACHHGLV [S12W], the protein stability index falls from 2.02 to 1.92.

First: HVTHWMGQPFNGDDRNTACHHGLV [S12G]
Second: HVTHWMGQPFNVDDRNTACHHGLV [S12V]
The protein stability index of the first is higher: 2.34 for the first, 1.8 for the second.

Going from HVTHWMGQPFNFDDRNTACHHGLV [S12F] to HVTHWMGQPFNYDDRNTACHHGLV [S12Y], the protein stability index falls from 1.85 to 1.78.

First: HVTHWMGQPFNKDDRNTACHHGLV [S12K]
Second: HVTHWMGQPFNSDDVNTACHHGLV [R15V]
The protein stability index of the first is higher: 2.51 for the first, 2.11 for the second.

— the supplement of paper PMC10567573
